Laboratory results reported in patent US11510990B2, “Conjugates of fusion proteins of GLP-1 and FGF21” (BEIJING QL BIOPHARMACEUTICAL CO., LTD., priority 2020, dated 2022).
Where a chain is given by its changes, count along the chain named.

B1: Compound 50: GLP-1/FGF21 fusion polypeptide SEQ ID NO: 117 conjugated with Moiety A at 51K and 233K (conjugate)
chain: HGEGTFTSDVSSYLEEQAAREFIAWLVRGGGGGGGSGGGGSGGGGSGGGGKHPIPDSSPLLQFGGQVRQRYLYTDDAQQTEAHLEIREDGTVGGAADQSPESLLQLRALRPGVIQILGVRTSRFLCQRPDGALYGSLHFDPEACSFRELLLEDGYNVYQSEAHGLPLHLPGQRSPHRDPAPRGPARFLPLPGLPPALPEPPGILAPQPPDVGSSDPLSLVGGSQGRSPSYESK
modifications: Moiety A conjugated at K51 and K233
B2: Compound 14: GLP-1/FGF21 fusion polypeptide SEQ ID NO: 14 conjugated with Moiety A at 222K (conjugate)
chain: HGEGTFTSDVSSYLEEQAAREFIAWLVRGGGGQEPGQEPGQEPGQEPGQEPHPIPDSSPLLQFGGQVRQRYLYTDDAQQTEAHLEIREDGTVGGAADQSPESLLQLRALRPGVIQILGVRTSRFLCQRPDGALYGSLHFDPEACSFRELLLEDGYNVYQSEAHGLPLHLPGQRSPHRDPAPRGPARFLPLPGLPPALPEPPGILAPQPPDVGSSDPLSLVGKSQGRSPSYES
modifications: Moiety A conjugated at K222
B3: Compound 13: GLP-1/FGF21 fusion polypeptide SEQ ID NO: 13 conjugated with Moiety A at 222K (conjugate)
chain: B2 chain with Q33A, E34Q, Q37A, E38Q, Q41A, E42Q, Q45A, E46Q, Q49A, E50Q
modifications: Moiety A conjugated at K222
B4: Compound 5: GLP-1/FGF21 fusion polypeptide SEQ ID NO: 5 conjugated with Moiety A at 51K and 222K (conjugate)
chain: HGEGTFTSDVSSYLEEQAAREFIAWLVRGGGGGGGSGGGGSGGGGSGGGGKHPIPDSSPLLQFGGQVRQRYLYTDDAQQTEAHLEIREDGTVGGAADQSPESLLQLRALRPGVIQILGVRTSRFLCQRPDGALYGSLHFDPEACSFRELLLEDGYNVYQSEAHGLPLHLPGQRSPHRDPAPRGPARFLPLPGLPPALPEPPGILAPQPPDVGSSDPLSLVGKSQGRSPSYAS
modifications: Moiety A conjugated at K51 and K222
B5: Compound 52: GLP-1/FGF21 fusion polypeptide SEQ ID NO: 149 conjugated with Moiety B at 51C and 225C (conjugate)
chain: B4 chain with R20K, K51C, R107K, R110K, R120K, R173K, K222G, G225C, A231E
modifications: Moiety B conjugated at C51 and C225
B6: Compound 11: GLP-1/FGF21 fusion polypeptide SEQ ID NO: 11 conjugated with Moiety A at 221K (conjugate)
chain: B4 chain with K51S, G221K, K222P, A231E
modifications: Moiety A conjugated at K221
B7: Compound 12: GLP-1/FGF21 fusion polypeptide SEQ ID NO: 12 conjugated with Moiety A at 225K (conjugate)
chain: B4 chain with K51S, K222G, G225K, A231E
modifications: Moiety A conjugated at K225
B8: Compound 20: GLP-1/FGF21 fusion polypeptide SEQ ID NO: 20 conjugated with Moiety A at 51K and 221K (conjugate)
chain: B4 chain with G221K, K222P, A231E
modifications: Moiety A conjugated at K51 and K221
B9: Compound 2: GLP-1/FGF21 fusion polypeptide SEQ ID NO: 2 conjugated with Moiety A at 20K and 231K (conjugate)
chain: B4 chain with R20K, K51S, K222G, A231K
modifications: Moiety A conjugated at K20 and K231
B10: Compound 51: GLP-1/FGF21 fusion polypeptide SEQ ID NO: 148 conjugated with Moiety B at 51C and 222C (conjugate)
chain: B4 chain with R20K, K51C, R107K, R110K, R120K, R173K, K222C, A231E
modifications: Moiety B conjugated at C51 and C222
B11: Compound 15: GLP-1/FGF21 fusion polypeptide SEQ ID NO: 15 conjugated with Moiety A at 231K (conjugate)
chain: B4 chain with K51S, K222P, A231K
modifications: Moiety A conjugated at K231
B12: Compound 54: GLP-1/FGF21 fusion polypeptide SEQ ID NO: 151 conjugated with Moiety B at 51C and 231C (conjugate)
chain: B4 chain with R20K, K51C, R107K, R110K, R120K, R173K, K222G, A231C
modifications: Moiety B conjugated at C51 and C231
B13: Compound 21: GLP-1/FGF21 fusion polypeptide SEQ ID NO: 21 conjugated with Moiety A at 51K and 225K (conjugate)
chain: B4 chain with K222G, G225K, A231E
modifications: Moiety A conjugated at K51 and K225
B14: Compound 22: GLP-1/FGF21 fusion polypeptide SEQ ID NO: 22 conjugated with Moiety A at 51K and 231K (conjugate)
chain: HGEGTFTSDVSSYLEEQAAREFIAWLVRGGGGGGGSGGGGSGGGGSGGGGKHPIPDSSPLLQFGGQVRQRYLYTDDAQQTEAHLEIREDGTVGGAADQSPESLLQLRALRPGVIQILGVRTSRFLCQRPDGALYGSLHFDPEACSFRELLLEDGYNVYQSEAHGLPLHLPGQRSPHRDPAPRGPARFLPLPGLPPALPEPPGILAPQPPDVGSSDPLSLVGGSQGRSPSYK
modifications: Moiety A conjugated at K51 and K231
B15: Compound 66: GLP-1/FGF21 fusion polypeptide SEQ ID NO: 163 conjugated with Moiety B at 51C and 225C (conjugate)
chain: HGEGTFTSDVSSYLEEQAAKEFIAWLVKGGGGSAPGSPAGSPTGSAPGSPCHPIPDSSPLLQFGGQVRQRYLYTDDAQQTEAHLEIREDGTVGGAADQSPESLLQLKALKPGVIQILGVKTSRFLCQRPDGALYGSLHFDPEACSFRELLLEDGYNVYQSEAHGLPLHLPGQKSPHRDPAPRGPARFLPLPGLPPALPEPPGILAPQPPDVGSSDPLSLVGGSQCRSPSYES
modifications: Moiety B conjugated at C51 and C225
B16: Compound 48: GLP-1/FGF21 fusion polypeptide SEQ ID NO: 88 conjugated with Moiety A at 51K and 222K (conjugate)
chain: HGEGTFTSDVSSYLEEQAAREFIAWLVRGGGGAQPGAQPGAQPGAQPGAQKHPIPDSSPLLQFGGQVRQRYLYTDDAQQTEAHLEIREDGTVGGAADQSPESLLQLRALRPGVIQILGVRTSRFLCQRPDGALYGSLHFDPEACSFRELLLEDGYNVYQSEAHGLPLHLPGQRSPHRDPAPRGPARFLPLPGLPPALPEPPGILAPQPPDVGSSDPLSLVGKSQGRSPSYES
modifications: Moiety A conjugated at K51 and K222

Assay: Body weight reduction in C57BL/6 mice, daily subcutaneous dosing
Assay type: in vivo
Settings: for Body weight reduction at 30 nmol/kg (% reduction compared to vehicle)(Day11): male C57BL/6 mice, 30 nmol/kg subcutaneously everyday, Day 11
Procedure: FIGS. 1A-1F show in vivo activities of fusion protein conjugates. […] Body weight was measured daily. […] Compared to Vehicle control: ***, p<0.001. All data are expressed as mean values and standard error (SEM).
10 week old male C57BL/6 mice were injected everyday subcutaneously with 30 nmol/kg exemplary fusion protein conjugates for 10 or 14 days (n=5). Body weight was daily monitored for each individual animal. Day 1 and Day 10 (or Day 14) are first day and last day of molecule dosage. % BW loss=100*(BW on Day n-BW on Day 1)/(BW on Day 1). Data are indicated as mean values and standard error (SEM) or pooled values. Statistical analysis was performed by One-way ANOVA. Body weight reduction on Day 11 in Table 5 is calculated by −1*(% BW loss−% BW loss of vehicle group).

| Molecule | Body weight reduction at 30 nmol/kg (% reduction compared to vehicle)(Day11) [%] | BW reduction efficacy compared to Compounds 10 and 13 (30 nmol/kg) | BW reduction compared to Semaglutide (30 nmol/kg, 10-day dosing period (FIGS. 1A-1B)) |
| --- | --- | --- | --- |
| Semaglutide [reference compound] | 6.4 | – | – |
| B1 | 9.4 | – | – |
| B2 | 9.8 | lower BW reduction efficacy | – |
| B3 | 23.6 | – | – |
| B4 | 14.4 | – | much more enhanced and persistent BW reduction |
| B5 | 20.9 | – | – |
| B6 | 10.4 | – | – |
| B7 | 22.8 | – | – |
| B8 | 26.6 | – | – |
| B9 | 18.2 | – | – |
| B10 | 26.2 | – | – |
| B11 | 11.3 | – | – |
| B12 | 13.5 | – | – |
| B13 | 34.4 | – | – |
| B14 | 32.9 | – | – |
| B15 | 18.9 | – | – |
| B16 | 27.8 | – | – |
